From article PMC4257621, “Structural implications of the C-terminal tail in the catalytic and stability properties of manganese peroxidases from ligninolytic fungi” (Acta Crystallographica Section D: Biological Crystallography, 2014)

Substrate: CCn1c(=NN=c2sc3cc(S(=O)(=O)O)ccc3n2CC)sc2cc(S(=O)(=O)O)ccc21
Test: purified protein
Format: biochemical, Gelatoporia subvermispora
Conditions: 0.1 M tartrate pH 3.5, 25°C, 0.1 mM H2O2, no Mn2+, micro and ± signs lost in table, µM supported by b43

| Protein | Km | kcat | kcat/Km |
| --- | --- | --- | --- |
| MnP6 short variant (Gelatoporia subvermispora B; D200V) (protein) AVCSDGTRVSNAVCCDFVSLGQDLQSMVLQGDCGEDAHEIIRLTFHDAVAISRKLGPSAGGGADGSMLLFPLVEPEFAASNGIDDSVNNLIPFLSLHPTISAGDLVQFAGAVALSNCPGAPRVQFLAGRPNHTIAAIDGLIPEPQDNVTSILERFDDAGGFTPFEVVSLLASHTIARAVKVDPTLDAAPFDTTPFTFDSQIFLEVLLKGVGFPGLDNNTGEVSSPLPLGDTSTGGKDTGLMRLQSDFALAHDPRTACFWQGFVDQQEFMSQSFASAFAKLAVLGHNTDDLIDCSEVVPVPKPAVDKPTTFPATTGPQDLELSCLAERFPTLSVDPGAQETLIPHCSD | 288 ± 12 µM | 76 ± 1 s⁻¹ | 263000 M⁻¹ s⁻¹ |
| MnP13 (short) (Gelatoporia subvermispora B) (protein) VTCPDGVNTVANAACCPLFAVRDDIQESLFDGGKCGEEVHESLRLTFHDAIGFSPSLTAQGKFGGGGADGSIAIFESIETGYHANLGIDEIINEQATFILKHNMTAGDFIQFAGAVGVSNCPGAPQLEFLLGRPAATAPAPDKTVPEPFDTVDSILARFGDAGFSPQEVIALLASHSVAAADHVDPAIPGTPFDSTPSDFDPQIFIEVQLRGTLFPGTGGNQGEVESPYPGEIRLQSDHNLARDSRTACFWQSLANNQQQMQAQFKAAMAKLAVLGQDVSQMVDCSDVIPVPLPPATTPHIPAGLSQNNIEQACATAAFPTLPIDVGPQTSIPPVPGS | 2440 ± 200 µM | 93 ± 3 s⁻¹ | 38000 M⁻¹ s⁻¹ |
